Ends that are not written are not given here.
Assays:
[1] = molecular target: T1, ErbB-4 receptor-Ig fusion (human, UniProt Q15303 26-651); test: phage ELISA; ratio to wild-type HRG-β1 177-244 phage
T1 construct: extracellular domain;range 224-C-terminus; also called ErbB-4-Ig; not shown: human IgG heavy chain constant region from His224 (hinge) on
T1 sequence: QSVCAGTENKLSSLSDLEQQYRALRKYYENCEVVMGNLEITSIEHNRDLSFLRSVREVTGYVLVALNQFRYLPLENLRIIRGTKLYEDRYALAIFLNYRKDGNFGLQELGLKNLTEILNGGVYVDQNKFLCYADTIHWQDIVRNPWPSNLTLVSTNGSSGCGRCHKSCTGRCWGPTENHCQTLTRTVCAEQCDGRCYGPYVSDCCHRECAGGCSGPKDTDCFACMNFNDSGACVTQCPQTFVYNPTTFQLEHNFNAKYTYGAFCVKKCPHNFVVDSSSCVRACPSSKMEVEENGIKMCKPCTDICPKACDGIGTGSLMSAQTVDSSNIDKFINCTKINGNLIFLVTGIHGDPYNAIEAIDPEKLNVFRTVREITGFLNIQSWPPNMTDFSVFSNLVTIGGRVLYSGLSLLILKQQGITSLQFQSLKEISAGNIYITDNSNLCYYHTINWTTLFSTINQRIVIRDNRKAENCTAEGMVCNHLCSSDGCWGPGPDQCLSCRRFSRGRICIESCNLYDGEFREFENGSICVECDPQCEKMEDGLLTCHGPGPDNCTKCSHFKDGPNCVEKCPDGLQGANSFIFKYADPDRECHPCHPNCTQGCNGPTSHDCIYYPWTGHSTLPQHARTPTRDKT

[2] = molecular target: T2, ErbB-3 receptor-Ig fusion (human, UniProt P21860 20-643); test: as above
T2 construct: extracellular domain;range 224-C-terminus; also called ErbB-3-Ig; 3/3 homodimer; not shown: human IgG heavy chain constant region from His224 (hinge) on

[3] = molecular target: T2, ErbB-3 receptor-Ig fusion; test: phage ELISA; soluble ErbB-3-Ig as competitor
[4] = molecular target: T1, ErbB-4 receptor-Ig fusion; test: phage ELISA; soluble ErbB-4-Ig as competitor
[5] = molecular target: T3, ErbB-2/3 receptor-Ig fusion (human, UniProt P04626 23-652; P21860 20-643); test: told with the 125I-HRG displacement assay; reference ErbB-3-Ig homodimer
T3 construct: extracellular domain;range 224-C-terminus; Co-expressed in HEK-293; also called ErbB-2/3-Ig; 2/3-heterodimer; not shown: human IgG heavy chain constant region from His224 (hinge) on

[6] = molecular target: ErbB-2/3 heterodimers on MCF7 breast cancer carcinoma cells (UniProt P04626 23-1255; P21860 20-1342, limits assumed); test: cell-based or functional assay
[7] = molecular target: T1, ErbB-4 receptor-Ig fusion; test: displacement of 125I-HRG from plate-bound ErbB-4-Ig
Description: For the ErbB-4 binding assays, PBS containing 1% BSA was used as the blocking and binding buffers, and the wash buffer was PBS containing 0.05% Tween 20™.

[8] = molecular target: T3, ErbB-2/3 receptor-Ig fusion; test: displacement of 125I-HRG from plate-bound ErbB-2/3-Ig
[9] = molecular target: T2, ErbB-3 receptor-Ig fusion; test: displacement of 125I-HRG from plate-bound ErbB-3-Ig
[10] = molecular target: T3, ErbB-2/3 receptor-Ig fusion; test: phage ELISA; soluble ErbB-2/3-Ig competes phage off plate-bound ErbB-2/3-Ig
Protocol: (§1) Microtiter plates (Nunc Maxisorp™ 96-well plates, Inter Med, Denmark) for phage ELISA were prepared as follows. The wells were precoated overnight with 0.5 μg of rabbit anti-human IgG (Fc gamma fragment-specific) antibodies (Jackson Immunoresearch, West Grove, Pa.) in 100 μL 50 mM NaCO₃ (pH 9.6). The wells were blocked for 30 minutes (min) with 200 μL PBS containing 0.1% bovine serum albumin (BSA) and rinsed with wash buffer (PBS containing 0.05% Tween 20™). The wells were then coated with 0.1 μg ErbB-2/3-Ig in binding buffer (PBS, 0.1% BSA, 0.05% Tween 20™) for 1 h, and washed again.
(§2) Serial dilutions of soluble ErbB-2/3-Ig (competitor) and a concentration of phage predetermined to give 60% saturation (without competitor) were added to the wells in 100 μL binding buffer. Following incubation for 2 h at room temperature, plates were washed extensively and treated with a 1:900 dilution of anti-M13 horseradish peroxidase conjugate (Pharmacia, Piscataway, N.J.) for 20 min. The amount of phage binding was determined by assaying horseradish peroxidase activity using o-phenylenediamine dihydrochloride) substrate solution (Sigma Chemical Company, St. Louis, Mo.). EC₅₀ values were calculated as the concentration of soluble ErbB-2/3-Ig required to compete half of the phage off the plate.

[11] = molecular target: T1, ErbB-4 receptor-Ig fusion; test: phage ELISA; soluble ErbB-4-Ig as competitor; remark: listed apart in the source
Protocol: as §1
(§3) Serial dilutions of soluble ErbB-2/3-Ig (competitor) and a concentration of phage predetermined to give 60% saturation (without competitor) were added to the wells in 100 μL binding buffer. Following incubation for 2 h at room temperature, plates were washed extensively and treated with a 1:900 dilution of anti-M13 horseradish peroxidase conjugate (Pharmacia, Piscataway, N.J.) for 20 min. The amount of phage binding was determined by assaying horseradish peroxidase activity using o-phenylenediamine dihydrochloride) substrate solution (Sigma Chemical Company, St. Louis, Mo.). EC₅₀ values were calculated as the concentration of soluble ErbB-2/3-Ig required to compete half of the phage off the plate. […]

[12] = molecular target: T2, ErbB-3 receptor-Ig fusion; test: phage ELISA; soluble ErbB-3-Ig as competitor; remark: listed apart in the source
Protocol: as §1, §3

[13] = molecular target: T1, ErbB-4 receptor-Ig fusion; test: phage ELISA; soluble ErbB-4-Ig as competitor; remark: listed apart in the source
Protocol: as §1, §2

[14] = molecular target: T2, ErbB-3 receptor-Ig fusion; test: phage ELISA; soluble ErbB-3-Ig as competitor; remark: listed apart in the source
Protocol: as §1, §2

T2 sequence (P21860 other isoform, or with tags, fused parts or gaps): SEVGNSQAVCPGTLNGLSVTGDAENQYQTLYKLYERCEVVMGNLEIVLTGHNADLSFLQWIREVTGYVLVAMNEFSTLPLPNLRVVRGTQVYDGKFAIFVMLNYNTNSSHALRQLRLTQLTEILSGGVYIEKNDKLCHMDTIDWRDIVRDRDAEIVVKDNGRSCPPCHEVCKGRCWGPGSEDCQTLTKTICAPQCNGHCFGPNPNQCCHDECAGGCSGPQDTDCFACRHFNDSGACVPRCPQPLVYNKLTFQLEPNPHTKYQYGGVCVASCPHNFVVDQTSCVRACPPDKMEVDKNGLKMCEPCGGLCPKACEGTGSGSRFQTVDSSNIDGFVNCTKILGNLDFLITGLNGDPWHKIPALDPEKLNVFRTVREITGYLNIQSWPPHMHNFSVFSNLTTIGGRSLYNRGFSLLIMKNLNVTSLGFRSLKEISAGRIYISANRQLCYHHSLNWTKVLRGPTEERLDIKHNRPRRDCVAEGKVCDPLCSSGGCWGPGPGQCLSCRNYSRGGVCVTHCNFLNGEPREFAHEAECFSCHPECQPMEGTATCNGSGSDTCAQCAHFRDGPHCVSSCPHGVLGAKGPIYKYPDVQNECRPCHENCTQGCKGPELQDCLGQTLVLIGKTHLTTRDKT

HRG-β1 177-244 H178L with 228-231 replaced by Met, on phage (from UniProt P69168 265-424) (ligand)
EC50 Mut/WT [1]: 1.7
EC50 Mut/WT [2]: 6.4

HRG-β1 177-244 F216A on phage (from UniProt P69168 265-424) (ligand)
EC50 [3]: 500 nM

HRG-β1 177-244 H178W with 228-231 replaced by Met, on phage (from UniProt P69168 265-424) (ligand)
EC50 Mut/WT [1]: 1.7
EC50 Mut/WT [2]: 1.2

HRG-β1 177-244 F189A on phage (from UniProt P69168 265-424) (ligand)
EC50 [3]: 892 nM
EC50 [4]: 106 nM

B1: soluble wild-type HRG-β1 EGF (HRG8, HRG-β1 177-228) (ligand)
chain: SHLVKCAEKEKTFCVNGGECFMVKDLSNPSRYLCKCPNEFTGDRCQNYVMAS
notes: also called HRG8 (WT)
fold higher affinity than for the 3/3 homodimer [5]: ~100 fold
KIRA EC50 (nM): tyrosine phosphorylation of the ErbB-2 receptor on MCF7 cells [6]: 0.212 nM
EC50 [7]: 1.5 nM
EC50 [8]: 0.033 nM
EC50 [9]: 2.3 nM

B2: soluble HRG-β1 EGF variant F1 (ligand)
chain: SHLVKCAEKEKTFCVNGGECFKVKDLSNPSRYLCKCPNEFTGDRCQNYVIAS
modifications: also: three disulfide bonds, pairing not given here
EC50 [7]: 0.26 nM
EC50 [9]: 0.6 nM

B3: soluble HRG-β1 EGF variant A3 (ligand)
chain: WELVPCAEKEKTFCVNGGECFMVKDLSNPSRYLCKCPNEFTGDRCQNYVMAS
modifications: also: three disulfide bonds, pairing not given here
EC50 [7]: 2.1 nM
EC50 [9]: 4.3 nM

B4: HRG11: HRG-β1 177-230 displayed on phage, GGGSGGG linker to pIII 247 (ligand, phage M13)
chain: SHLVKCAEKEKTFCVNGGECFMVKDLSNPSRYLCKCPNEFTGDRCQNYVMASFYGGGSGGGGGSGGGSGSGDFDYEKMANANKGAMTENADENALQSDAKGKLDSVATDYGAAIDGFIGDVSGLANGNGATGDFAGSNSQMAQVGDGDNSPLMNNFRQYLPSLPQSVECRPFVFSAGKPYEFSIDCDKINLFRGVFAFLLYVATFMYVFSTFANILRNKES
notes: range 247-C-terminus; Monovalent phage display; also called pHRG11-g3
EC50 [10]: 19 nM

B5: HRG6: HRG-β1 177-227 displayed on phage, fused to pIII 247 (ligand, phage M13)
chain: SHLVKCAEKEKTFCVNGGECFMVKDLSNPSRYLCKCPNEFTGDRCQNYVMAGGSGGGSGSGDFDYEKMANANKGAMTENADENALQSDAKGKLDSVATDYGAAIDGFIGDVSGLANGNGATGDFAGSNSQMAQVGDGDNSPLMNNFRQYLPSLPQSVECRPFVFSAGKPYEFSIDCDKINLFRGVFAFLLYVATFMYVFSTFANILRNKES
notes: range 247-C-terminus; also called pHRG6-g3
EC50 [10]: 40 nM

SHLVKCAEKEKTFCVNGGECFMVKDYGYLMCKCPNEFTGDRCQNYVMAS (ligand, also: three disulfide bonds, pairing not given here) [soluble HRG-β1 EGF variant E2]
EC50 [7]: 2.4 nM

SHLVKCAEKEKTFCVNGGECYRVKTYGYLMCKCPNEFTGDRCQNYVIAS (ligand, also: three disulfide bonds, pairing not given here, also called D4+E2+M50I) [soluble HRG-β1 EGF combination variant HRG58]
EC50 [7]: 0.3 nM

B6: HRG8: wild-type HRG-β1 EGF (HRG-β1 177-228) displayed on phage, linker to pIII 323 (ligand, phage M13)
chain: SHLVKCAEKEKTFCVNGGECFMVKDLSNPSRYLCKCPNEFTGDRCQNYVMASGGGSGGGSGGGSNSQMAQVGDGDNSPLMNNFRQYLPSLPQSVECRPFVFSAGKPYEFSIDCDKINLFRGVFAFLLYVATFMYVFSTFANILRNKES
notes: range 323-C-terminus; Monovalent phage display; also called pHRG8-g3; wild-type HRG-β1 EGF phage
EC50 [11]: 163 nM
EC50 [10]: 11 nM
EC50 [12]: 135 nM

SHLVKCGEEREGFCVNGGECYRVKTYGYLMCKCPNEFTGDRCQHYVIAS (ligand, also: three disulfide bonds, pairing not given here, also called B3+D4+E2+I2) [soluble HRG-β1 EGF combination variant HRG73]
EC50 [7]: 0.31 nM

B7: HRG5: HRG-β1 147-244 displayed on phage, fused to pIII 247 (ligand, phage M13)
chain: YVSSESPIRISVSTEGANTSSSTSTSTTGTSHLVKCAEKEKTFCVNGGECFMVKDLSNPSRYLCKCPNEFTGDRCQNYVMASFYKHLGIEFMEAEELYGGSGGGSGSGDFDYEKMANANKGAMTENADENALQSDAKGKLDSVATDYGAAIDGFIGDVSGLANGNGATGDFAGSNSQMAQVGDGDNSPLMNNFRQYLPSLPQSVECRPFVFSAGKPYEFSIDCDKINLFRGVFAFLLYVATFMYVFSTFANILRNKES
notes: range 247-C-terminus; Monovalent phage display; also called pHRG5-g3
EC50 [10]: 4.7 nM

B8: HRG7: HRG-β1 177-228 displayed on phage, fused to pIII 247 (ligand, phage M13)
chain: SHLVKCAEKEKTFCVNGGECFMVKDLSNPSRYLCKCPNEFTGDRCQNYVMASGGSGGGSGSGDFDYEKMANANKGAMTENADENALQSDAKGKLDSVATDYGAAIDGFIGDVSGLANGNGATGDFAGSNSQMAQVGDGDNSPLMNNFRQYLPSLPQSVECRPFVFSAGKPYEFSIDCDKINLFRGVFAFLLYVATFMYVFSTFANILRNKES
notes: range 247-C-terminus
EC50 [10]: 42 nM

B9: HRG2: HRG-β1 177-244 displayed on phage, fused to pIII 247 (ligand, phage M13)
chain: SHLVKCAEKEKTFCVNGGECFMVKDLSNPSRYLCKCPNEFTGDRCQNYVMASFYKHLGIEFMEAEELYGGSGGGSGSGDFDYEKMANANKGAMTENADENALQSDAKGKLDSVATDYGAAIDGFIGDVSGLANGNGATGDFAGSNSQMAQVGDGDNSPLMNNFRQYLPSLPQSVECRPFVFSAGKPYEFSIDCDKINLFRGVFAFLLYVATFMYVFSTFANILRNKES
notes: range 247-C-terminus; Monovalent phage display; also called pHRG2-g3
EC50 [13]: 19 nM
EC50 [14]: 13 nM
EC50 [10]: 6 nM
